B1: anti-PD-L1 mAb YW243.55.S1 (antibody, V domains shown)
VH: not shown
VL: DIQMTQSPSSLSASVGDRVTITCRASQDVSTAVAWYQQKPGKAPKLLIYSASFLYSGVPSRFSGSGSGTDFTLTISSLQPEDFATYYCQQYLFTPPTFGQGTKVEIKR
B2: Fcab FS17-33-288 with LALA mutation (designed binder)
chain: TCPPCPAPEAAGGPSVFLFPPKPKDTLMISRTPEVTCVVVDVSHEDPEVKFNWYVDGVEVHNAKTKPREEQYNSTYRVVSVLTVLHQDWLNGKEYKCKVSNKALPAPIEKTISKAKGQPREPQVYTLPPSRDESGYWVSLTCLVKGFYPSDIVVEWESNGEPQYWAKTTPPVLDSDGSFFLYSKLTVSNWRWQIDDFSCSVMHEALHNHYTQKSLSLSPGK
B3: Fcab FS17-33-296 with LALA mutation (designed binder)
chain: TCPPCPAPEAAGGPSVFLFPPKPKDTLMISRTPEVTCVVVDVSHEDPEVKFNWYVDGVEVHNAKTKPREEQYNSTYRVVSVLTVLHQDWLNGKEYKCKVSNKALPAPIEKTISKAKGQPREPQVYTLPPSRDESGYWVSLTCLVKGFYPSDIVVEWESNGEPQYWAKTTPPVLDSDGSFFLYSKLTVSNWRWQVDDFSCSVMHEALHNHYTQKSLSLSPGK
B4: Fcab FS17-33-289 with LALA mutation (designed binder)
chain: TCPPCPAPEAAGGPSVFLFPPKPKDTLMISRTPEVTCVVVDVSHEDPEVKFNWYVDGVEVHNAKTKPREEQYNSTYRVVSVLTVLHQDWLNGKEYKCKVSNKALPAPIEKTISKAKGQPREPQVYTLPPSRDESGYWVSLTCLVKGFYPSDIVVEWESNGEPQYWAKTTPPVLDSDGSFFLYSKLTVSNWRWQLDDFSCSVMHEALHNHYTQKSLSLSPGK
B5: Fcab FS17-33-334 with LALA mutation (designed binder)
chain: TCPPCPAPEAAGGPSVFLFPPKPKDTLMISRTPEVTCVVVDVSHEDPEVKFNWYVDGVEVHNAKTKPREEQYNSTYRVVSVLTVLHQDWLNGKEYKCKVSNKALPAPIEKTISKAKGQPREPQVYTLPPSRDESGYWVSLTCLVKGFYPSDIAVEWESNGEPQYWAKTTPPVLDSDGSFFLYSKLTVSNWRWQLDDFSCSVMHEALHNHYTQKSLSLSPGK
B6: FS17-33-289AA/HelD1.3 mock mAb^2 (bispecific antibody, human IgG1, kappa, L234A L235A)
heavy: QVQLQESGPGLVRPSQTLSLTCTVSGSTFSGYGVNWVRQPPGRGLEWIGMIWGDGNTDYNSALKSRVTMLVDTSKNQFSLRLSSVTAADTAVYYCARERDYRLDYWGQGSLVTVSSASTKGPSVFPLAPSSKSTSGGTAALGCLVKDYFPEPVTVSWNSGALTSGVHTFPAVLQSSGLYSLSSVVTVPSSSLGTQTYICNVNHKPSNTKVDKKVEPKSCDKTHTCPPCPAPEAAGGPSVFLFPPKPKDTLMISRTPEVTCVVVDVSHEDPEVKFNWYVDGVEVHNAKTKPREEQYNSTYRVVSVLTVLHQDWLNGKEYKCKVSNKALPAPIEKTISKAKGQPREPQVYTLPPSRDESGYWVSLTCLVKGFYPSDIVVEWESNGEPQYWAKTTPPVLDSDGSFFLYSKLTVSNWRWQLDDFSCSVMHEALHNHYTQKSLSLSPGK
light: DIQMTQSPASLSASVGETVTITCRASGNIHNYLAWYQQKQGKSPQLLVYNAKTLADGVPSRFSGSGSGTQYSLKINSLQPEDFGSYYCQHFWSTPRTFGGGTKLEIKRTVAAPSVFIFPPSDEQLKSGTASVVCLLNNFYPREAKVQWKVDNALQSGNSQESVTEQDSKDSTYSLSSTLTLSKADYEKHKVYACEVTHQGLSSPVTKSFNRGEC
notes: also called F17-33-289AA/HelD1.3; F17-33-289AA/HELD1.3
B7: FS17-33-461AA/HELD1.3 (bispecific antibody)
chain 1: QVQLQESGPGLVRPSQTLSLTCTVSGSTFSGYGVNWVRQPPGRGLEWIGMIWGDGNTDYNSALKSRVTMLVDTSKNQFSLRLSSVTAADTAVYYCARERDYRLDYWGQGSLVTVSSASTKGPSVFPLAPSSKSTSGGTAALGCLVKDYFPEPVTVSWNSGALTSGVHTFPAVLQSSGLYSLSSVVTVPSSSLGTQTYICNVNHKPSNTKVDKKVEPKSCDKTHTCPPCPAPEAAGGPSVFLFPPKPKDTLMISRTPEVTCVVVDVSHEDPEVKFNWYVDGVEVHNAKTKPREEQYNSTYRVVSVLTVLHQDWLNGKEYKCKVSNKALPAPIEKTISKAKGQPREPQVYTLPPSRDESGYWVSLTCLVKGFYPSDIAVEWESNGEPQYWAKTTPPVLDSDGSFFLYSKLTVSNWRWSLDDVFSCSVMHEALHNHYTQKSLSLSPGK
chain 2: DIQMTQSPASLSASVGETVTITCRASGNIHNYLAWYQQKQGKSPQLLVYNAKTLADGVPSRFSGSGSGTQYSLKINSLQPEDFGSYYCQHFWSTPRTFGGGTKLEIKRTVAAPSVFIFPPSDEQLKSGTASVVCLLNNFYPREAKVQWKVDNALQSGNSQESVTEQDSKDSTYSLSSTLTLSKADYEKHKVYACEVTHQGLSSPVTKSFNRGEC
B8: FS17-33-460AA/HELD1.3 (bispecific antibody)
chain 1: QVQLQESGPGLVRPSQTLSLTCTVSGSTFSGYGVNWVRQPPGRGLEWIGMIWGDGNTDYNSALKSRVTMLVDTSKNQFSLRLSSVTAADTAVYYCARERDYRLDYWGQGSLVTVSSASTKGPSVFPLAPSSKSTSGGTAALGCLVKDYFPEPVTVSWNSGALTSGVHTFPAVLQSSGLYSLSSVVTVPSSSLGTQTYICNVNHKPSNTKVDKKVEPKSCDKTHTCPPCPAPEAAGGPSVFLFPPKPKDTLMISRTPEVTCVVVDVSHEDPEVKFNWYVDGVEVHNAKTKPREEQYNSTYRVVSVLTVLHQDWLNGKEYKCKVSNKALPAPIEKTISKAKGQPREPQVYTLPPSRDESGYWVSLTCLVKGFYPSDIAVEWESNGEPQYWAKTTPPVLDSDGSFFLYSKLTVSNWRWHLDDVFSCSVMHEALHNHYTQKSLSLSPGK
chain 2: DIQMTQSPASLSASVGETVTITCRASGNIHNYLAWYQQKQGKSPQLLVYNAKTLADGVPSRFSGSGSGTQYSLKINSLQPEDFGSYYCQHFWSTPRTFGGGTKLEIKRTVAAPSVFIFPPSDEQLKSGTASVVCLLNNFYPREAKVQWKVDNALQSGNSQESVTEQDSKDSTYSLSSTLTLSKADYEKHKVYACEVTHQGLSSPVTKSFNRGEC
B9: FS17-33-462AA/HELD1.3 (bispecific antibody)
chain 1: QVQLQESGPGLVRPSQTLSLTCTVSGSTFSGYGVNWVRQPPGRGLEWIGMIWGDGNTDYNSALKSRVTMLVDTSKNQFSLRLSSVTAADTAVYYCARERDYRLDYWGQGSLVTVSSASTKGPSVFPLAPSSKSTSGGTAALGCLVKDYFPEPVTVSWNSGALTSGVHTFPAVLQSSGLYSLSSVVTVPSSSLGTQTYICNVNHKPSNTKVDKKVEPKSCDKTHTCPPCPAPEAAGGPSVFLFPPKPKDTLMISRTPEVTCVVVDVSHEDPEVKFNWYVDGVEVHNAKTKPREEQYNSTYRVVSVLTVLHQDWLNGKEYKCKVSNKALPAPIEKTISKAKGQPREPQVYTLPPSRDESGYWVSLTCLVKGFYPSDIAVEWESNGEPQYWAKTTPPVLDSDGSFFLYSKLTVSNWRWQLDAVFSCSVMHEALHNHYTQKSLSLSPGK
chain 2: DIQMTQSPASLSASVGETVTITCRASGNIHNYLAWYQQKQGKSPQLLVYNAKTLADGVPSRFSGSGSGTQYSLKINSLQPEDFGSYYCQHFWSTPRTFGGGTKLEIKRTVAAPSVFIFPPSDEQLKSGTASVVCLLNNFYPREAKVQWKVDNALQSGNSQESVTEQDSKDSTYSLSSTLTLSKADYEKHKVYACEVTHQGLSSPVTKSFNRGEC

Key:
[1] = target: T1, Human PD-L1 expressed on cells (human, UniProt Q9NZQ7 19-290); assay: cell-based or functional assay
[2] = target: T1, Human PD-L1 expressed on cells; assay: flow cytometry, HEK293 cells overexpressing the target, anti-human Fc 488
Method: (§1) Cell binding assays were performed by incubating Fcabs or mAb² proteins with either control HEK293 cells or HEK293 cells overexpressing hPD-L1 or cynomolgus PD-L1 cells for 1 hour at 4° C. Fcab/mAb binding was subsequently detected using an anti-human Fc 488 detection antibody. Fluorescent signal intensities were measured using a FACS canto.

[3] = target: T2, Cynomolgus PD-L1 expressed on HEK 293 cells (cynomolgus, UniProt Q9NZQ7 19-290 (human entry)); assay: as above
T2 construct: also called cell-expressed cynomolgus PD-L1
Method: as §1

[4] = target: T3, Monomeric His-tagged human PD-L1 (Acro biosystems PD1-H5229) (human, UniProt Q9NZQ7 19-238); assay: off-rate, binding to hPD-L1, mock mAb^2; instrument not stated
T3 construct: also called hPD-L1-his; PD-L1-his
T3 sequence (Q9NZQ7 19-238 limits assumed): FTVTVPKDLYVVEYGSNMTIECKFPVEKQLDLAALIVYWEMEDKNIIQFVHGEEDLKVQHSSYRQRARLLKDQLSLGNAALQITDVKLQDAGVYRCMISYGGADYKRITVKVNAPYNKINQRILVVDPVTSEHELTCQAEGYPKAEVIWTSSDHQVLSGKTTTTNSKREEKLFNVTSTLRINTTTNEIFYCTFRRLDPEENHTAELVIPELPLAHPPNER

T1 sequence (Q9NZQ7 19-290 limits assumed): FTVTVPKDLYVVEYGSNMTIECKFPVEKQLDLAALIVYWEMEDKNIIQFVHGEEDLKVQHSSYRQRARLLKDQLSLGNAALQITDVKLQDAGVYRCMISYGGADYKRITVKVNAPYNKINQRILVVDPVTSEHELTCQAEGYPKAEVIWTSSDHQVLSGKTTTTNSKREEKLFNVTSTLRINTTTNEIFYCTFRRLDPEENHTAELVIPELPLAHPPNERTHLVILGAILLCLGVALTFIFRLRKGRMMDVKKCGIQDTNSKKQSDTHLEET
T2 sequence (Q9NZQ7 other isoform, or with tags, fused parts or gaps limits assumed): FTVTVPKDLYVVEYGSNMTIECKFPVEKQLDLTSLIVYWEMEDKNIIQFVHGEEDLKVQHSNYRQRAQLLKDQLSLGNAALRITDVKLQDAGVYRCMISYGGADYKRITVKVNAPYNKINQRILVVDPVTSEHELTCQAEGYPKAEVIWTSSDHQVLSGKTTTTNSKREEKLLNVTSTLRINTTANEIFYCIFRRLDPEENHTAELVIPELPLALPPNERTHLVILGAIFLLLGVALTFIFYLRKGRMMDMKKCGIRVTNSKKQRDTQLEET

Binder	DO11.10 T cell activation assay EC50 [1]	koff [4]	other results
B1	257 pM	–	–
B2	137 pM	–	–
B3	166 pM	–	–
B4	228 pM	–	–
B5	381 pM	–	–
B6	1560 pM	–	Kd [2]: 3900 pM; Kd [3]: 2200 pM
B7	–	0.000359 s⁻¹	–
B8	–	0.000202 s⁻¹	–
B9	–	0.000899 s⁻¹	–

From patent US20230406935A1 (F STAR THERAPEUTICS, published 2023)
